Consider 33 molecules from patent publication US20110052582A1 (Hoffmann-La Roche, published 2011).

Sequences and labels used below:
T1: Soluble CDCP1 extracellular domain (CDCP1-ECD) (SEQ ID NO:30) fused to Streptavidin Binding Protein (SBP) (human, UniProt Q9H5V8 30-663)
T1 construct: also called SBP-CDCP1-ECD
T1 sequence: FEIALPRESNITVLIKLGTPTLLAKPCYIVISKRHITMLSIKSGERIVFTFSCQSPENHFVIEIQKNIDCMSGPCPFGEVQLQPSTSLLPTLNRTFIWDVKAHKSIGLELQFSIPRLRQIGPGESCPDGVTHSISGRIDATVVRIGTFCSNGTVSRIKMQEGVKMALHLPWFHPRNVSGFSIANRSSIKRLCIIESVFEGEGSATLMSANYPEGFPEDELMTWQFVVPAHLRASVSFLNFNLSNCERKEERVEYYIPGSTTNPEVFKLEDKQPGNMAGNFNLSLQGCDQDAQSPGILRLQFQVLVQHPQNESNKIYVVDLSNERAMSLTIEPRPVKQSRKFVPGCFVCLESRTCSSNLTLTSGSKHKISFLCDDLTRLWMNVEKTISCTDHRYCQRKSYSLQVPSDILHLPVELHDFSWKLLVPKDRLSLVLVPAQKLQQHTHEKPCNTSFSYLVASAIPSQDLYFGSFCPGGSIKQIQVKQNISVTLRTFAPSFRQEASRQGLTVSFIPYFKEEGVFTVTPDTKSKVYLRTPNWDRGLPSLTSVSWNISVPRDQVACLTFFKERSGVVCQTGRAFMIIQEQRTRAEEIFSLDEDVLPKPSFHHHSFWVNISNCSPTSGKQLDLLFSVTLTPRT

B1: hHC4-K2 / hLC4-e (antibody, V domains shown)
VH: EVQLVESGGGLVKPGGSLRLSCAASGFTFNSYGMSWVRQAPGKGLEWVSSISSGGSYTYYADSVKGRFTISRDNAKNSLYLQMNSLRAEDTAVYYCARHPDYDGVWFAYWGQGTLVTVSS
VL: DIQMTQSPSSLSASVGDRVTITCSVSSSVFYVHWYQQKPGKAPKLLIYDTSKLASGVPSRFSGSGSGTDFTFTISSLQPEDIATYYCQQWNSNPPTFGGGTKVEIK
B2: hHC4-a / hLC4-K (antibody, V domains shown)
VH: B1 VH with S50T, A61P
VL: EIVLTQSPATLSLSPGERATLSCRASSSVFYLHWYQQKPGQAPRLWIYDTSKLASGIPARFSGSGSGTDFTLTISSLEPEDFAVYYCQQWNSNPPTFGGGTKVEIK
B3: hHC4-c / chLC4 (antibody, V domains shown)
VH: B1 VH with K13Q, S49A, S50T, A61P
VL: QIVLTQSPAIMSASPGEKVTMTCSVSSSVFYVHWYQQKSGTSPKRWIYDTSKLASGVPARFSGSGSGTSYSLTISSMEAEDAATYYCQQWNSNPPTFGGGTKLEIK
B4: hHC4-03 / hLC4-I (antibody, V domains shown)
VH: B1 VH with V5L, K13Q, S50A, A61P, A75S, S78T, R98K
VL: B2 VL with L4M, H33S, E78Q
B5: hHC4-d / hLC4-e (antibody, V domains shown)
VH: B1 VH with V5L, K13Q, S50T, A61P, A75S, S78T, R98K
VL: B1 VL
B6: hHC4-04 / hLC4-b (antibody, V domains shown)
VH: B1 VH with V5L, K13Q, S50T, A61P, A75S, S78T
VL: B2 VL with R24S, A25V, L32V, W46L, F70Y
B7: hHC4-K / hLC4-e (antibody, V domains shown)
VH: B1 VH with T58I
VL: B1 VL
B8: hHC4-a / hLC4-f (antibody, V domains shown)
VH: B1 VH with S50T, A61P
VL: B1 VL with F70Y
B9: hHC4-04 / hLC4-K (antibody, V domains shown)
VH: B1 VH with V5L, K13Q, S50T, A61P, A75S, S78T
VL: B2 VL
B10: hHC4-c / hLC4-f (antibody, V domains shown)
VH: B1 VH with K13Q, S49A, S50T, A61P
VL: B1 VL with F70Y
B11: hHC4-H / hLC4-I (antibody, V domains shown)
VH: B1 VH with K13Q, S49A, S50T, T58K, A61V
VL: B2 VL with L4M, H33S, E78Q
B12: hHC4-04 / hLC4-I (antibody, V domains shown)
VH: B1 VH with V5L, K13Q, S50T, A61P, A75S, S78T
VL: B2 VL with L4M, H33S, E78Q
B13: hHC4-b / hLC4-f (antibody, V domains shown)
VH: B1 VH with G33S, S35N, T58I
VL: B1 VL with F70Y
B14: hHC4-04 / hLC4-M (antibody, V domains shown)
VH: B1 VH with V5L, K13Q, S50T, A61P, A75S, S78T
VL: B2 VL with L21M, R24G, Q41L, A59D, S76R
B15: hHC4-K / hLC4-f (antibody, V domains shown)
VH: B1 VH with T58I
VL: B1 VL with F70Y
B16: hHC4-d / hLC4-f (antibody, V domains shown)
VH: B1 VH with V5L, K13Q, S50T, A61P, A75S, S78T, R98K
VL: B1 VL with F70Y
B17: hHC4-04 / chLC4 (antibody, V domains shown)
VH: B1 VH with V5L, K13Q, S50T, A61P, A75S, S78T
VL: B3 VL
B18: hHC4-07 / hLC4-I (antibody, V domains shown)
VH: B1 VH with V5L, K13Q, G33A, S50T, A61P, A75S, S78T, R98K
VL: B2 VL with L4M, H33S, E78Q
B19: hHC4-03 / hLC4-a (antibody, V domains shown)
VH: B1 VH with V5L, K13Q, S50A, A61P, A75S, S78T, R98K
VL: B2 VL with R24S, A25V, L32V, W46L
B20: hHC4-07 / hLC4-b (antibody, V domains shown)
VH: B1 VH with V5L, K13Q, G33A, S50T, A61P, A75S, S78T, R98K
VL: B2 VL with R24S, A25V, L32V, W46L, F70Y
B21: hHC4-H / chLC4 (antibody, V domains shown)
VH: B1 VH with K13Q, S49A, S50T, T58K, A61V
VL: B3 VL
B22: hHC4-04 / hLC4-J (antibody, V domains shown)
VH: B1 VH with V5L, K13Q, S50T, A61P, A75S, S78T
VL: B2 VL with L4M, L21M, E78Q
B23: hHC4-03 / hLC4-b (antibody, V domains shown)
VH: B1 VH with V5L, K13Q, S50A, A61P, A75S, S78T, R98K
VL: B2 VL with R24S, A25V, L32V, W46L, F70Y
B24: hHC4-04 / hLC4-L2 (antibody, V domains shown)
VH: B1 VH with V5L, K13Q, S50T, A61P, A75S, S78T
VL: B2 VL with L21M, R24S, A25V
B25: hHC4-b / hLC4-e (antibody, V domains shown)
VH: B1 VH with G33S, S35N, T58I
VL: B1 VL
B26: hHC4-07 / hLC4-K (antibody, V domains shown)
VH: B1 VH with V5L, K13Q, G33A, S50T, A61P, A75S, S78T, R98K
VL: B2 VL
B27: hHC4-03 / hLC4-L (antibody, V domains shown)
VH: B1 VH with V5L, K13Q, S50A, A61P, A75S, S78T, R98K
VL: B2 VL with L21M
B28: hHC4-03 / hLC4-M (antibody, V domains shown)
VH: B1 VH with V5L, K13Q, S50A, A61P, A75S, S78T, R98K
VL: B2 VL with L21M, R24G, Q41L, A59D, S76R
B29: hHC4-04 / hLC4-L (antibody, V domains shown)
VH: B1 VH with V5L, K13Q, S50T, A61P, A75S, S78T
VL: B2 VL with L21M
B30: hHC4-b / chLC4 (antibody, V domains shown)
VH: B1 VH with G33S, S35N, T58I
VL: B3 VL
B31: hHC4-04 / hLC4-a (antibody, V domains shown)
VH: B1 VH with V5L, K13Q, S50T, A61P, A75S, S78T
VL: B2 VL with R24S, A25V, L32V, W46L
B32: hHC4-07 / hLC4-J (antibody, V domains shown)
VH: B1 VH with V5L, K13Q, G33A, S50T, A61P, A75S, S78T, R98K
VL: B2 VL with L4M, L21M, E78Q
B33: hHC4-c / hLC4-e (antibody, V domains shown)
VH: B1 VH with K13Q, S49A, S50T, A61P
VL: B1 VL

Positions count from the first letter of the chain named.

The target in this assay is T1, Soluble CDCP1 extracellular domain …. The experiment in a line: ELISA on captured SBP-CDCP1-ECD, ratio relative to chimeric CUB4 (chHC4). As to the method:
Soluble CDCP1 extracellular domain (CDCP1-ECD) (SEQ ID NO:30) fused to Streptavidin Binding Protein (SBP) was captured on a sreptavidine plate. To define optimal binding of the antibody to SBP-CDCP1-ECD, 384-well polystyrene plates (NUNC, streptavidin-coated) delivered by MicroCoat, Bernried, Germany (ID-No. 1734776-001) have been coated with pure and stepwise diluted HEK293 supernatant (in BSA/IMDM buffer: 100 mg/ml BSA Fraction V, Roche 10735078001, dissolved in Iscove's Modified Dulbeccos Medium). Using a calibration curve of mouse CUB4 antibodies the optimal dilution factor of the HEK293 supernatant in relation to the streptavidin binding capacity of the microtiter plate was identified. For the standard coating, SBP-CDCP1-ECD containing HEK293 supernatant was diluted (between 1:15 and 1:40) and incubated overnight at 2-8° C. (25 μl per well). Intensive washing of the microtiter plate is necessary to remove remaining unbound SBP-CDCP1-ECD.
Humanized CUB4 antibodies and/or reference antibody (chimeric (chHC4) CUB4 antibody comprising human constant region and mouse VH and VL of SEQ ID NO:1 and 2) were tested either undiluted or using a 12-step-dilution. 12.5 μl per well of each sample was incubated for 90 min at room temperature. After intensive washing using PBS-T (0.1% Tween 20 in PBS) 25 μl of either goat anti-human IgG antibodies coupled with HRP (Jackson ImmunoResearch, Code No: 109-036-098, dilution 1:10000) for human antibodies were added and incubated for 1 hour. After intensive washing the binding of the antibodies was detected with ABTS tablets (Roche Diagnostics GmbH, Cat. No.: 1112422). Absorbance at 405 nm/492 nm was measured using a standard photometer.
For orientation: ELISA stands for enzyme-linked immunosorbent assay.
B1: the relative binding ratio is 0.07.
Still for that read-out and setting: the value for B2 was 0.51.
The same measure, in the same setting: the value for B3 was 1.
Consider B4, for which the binding result is “no binding”.
For B5, the relative binding ratio is 0.27.
B6: the relative binding ratio came out at 0.36.
Take B7: the binding result was “no binding”.
Consider B8, for which the relative binding ratio was 0.5.
With B9, the relative binding ratio amounted to 0.57.
As to B10, the relative binding ratio is 0.34.
Consider B11, for which the binding result is “no binding”.
Turning to B12, the binding result is listed as “no binding”.
As to B13, the binding result is “no binding”.
For the molecule B14, the relative binding ratio was determined as 0.82.
With B15, the binding result is on record as “no binding”.
With B16, the relative binding ratio was determined as 0.4.
The same measure, in the same setting: with B17 the figure was 0.71.
As to B18, the binding result was “no binding”.
As to B19, the relative binding ratio is 0.07.
On to B20, for which the relative binding ratio amounted to 0.07.
Same read-out and setting: the value for B21 was 1.12.
The same measure, in the same setting: with B22 the figure was 0.4.
For B23, the relative binding ratio was 0.07.
Take B24: the relative binding ratio was 0.67.
For B25, the binding result is listed as “no binding”.
Take B26: the relative binding ratio was determined as 0.1.
Same read-out and setting: the value for B27 was 0.17.
Still for that read-out and setting: the value for B28 was 0.14; that for B29 was 0.68.
As for B30, the binding result is given as “no binding”.
Take B31: the relative binding ratio was 0.39.
On to B32, for which the relative binding ratio came to 0.07.
On to B33, for which the relative binding ratio is 0.25.
